# From the RNAGym collection of RNA variant scans (doi:10.1093/molbev/msab373)
# B1: Azoarcus group I ribozyme (parent)
# chain: GUGCCUUGCGCCGGGAAACCACGCAAGGGAUGGUGUCAAAUUCGGCGAAACCUAAGCGCCCGCCCGGGCGUAUGGCAACGCCGAGCCAAGCUUCGGCGCCUGCGCCGAUGAAGGUGUAGAGACUAGACGGCACCCACCUAAGGCAAACGCUAUGGUGAAGGCAUAGUCCAGGGAGUGGCGAAAGUCACACAAACCGG
# Variants of: B1
# Assay: reverse-splicing fitness (ratio to wild type); higher = more active; in vitro selection; Mg2+ level not given
# Procedure, shortened: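 An in vitro group I ribozyme library with randomized positions was T7-transcribed and gel-purified. In triplicate, 10 pmol RNA in EPPS pH 7.5 was reacted with 50 pmoles of a 30-nt RNA substrate for 1 h at 37 °C across several added MgCl2 levels (1–48 mM), then stopped with EDTA. Products were reverse transcribed from a substrate-complementary primer, PCR-amplified and sequenced (HiSeq 4000). Fitness is a variant's read proportion after selection over that before, normalised to wild type.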
row,Variant,reverse-splicing fitness
1,GUGCCUUGCGCCGGGAAACCACGCAAGGGAUGGUGUCAAAUUCGGCGAAACCUAAGCGCCCGCCCGGGCGUAUGGCAACGCGGAGCCAAGCUUCGGCGCCUGCGCCGAUGUAGGUGUAGCGACUAGACGGCACCCACCUAAGGCUAACGAUAUGGUGAAGGCAUAGUCAAGGGAGCGGCGAAAGUCACACAAACCGG [C82G A111U A120C A145U C150A C169A U176C],0.0144
2,GUGCCUUGCGCCGGGAAACCACGCAAGGGAUGGUGUCAAAUUCGGCGAAACCUAAGCGCCCGCCCGGGCGUAUGGCAACGCGGAGCCAAGCUUCGGCGCCUGCGCCGAUGUAGGUGUAGCGACUAGACGGCACCCACCUAAGGCUAACGAUAUGGUGAAGGCAUAGUCAAGGGAGGGGCGAAAGUCACACAAACCGG [C82G A111U A120C A145U C150A C169A U176G],0.00709
3,GUGCCUUGCGCCGGGAAACCACGCAAGGGAUGGUGUCAAAUUCGGCGAAACCUAAGCGCCCGCCCGGGCGUAUGGCAACGCGGAGCCAAGCUUCGGCGCCUGCGCCGAUGUAGGUGUAGCGACUAGACGGCACCCACCUAAGGCUAACGAUAUGGUGAAGGCAUAGUCAAGGGAGAGGCGAAAGUCACACAAACCGG [C82G A111U A120C A145U C150A C169A U176A],0.0187
4,GUGCCUUGCGCCGGGAAACCACGCAAGGGAUGGUGUCAAAUUCGGCGAAACCUAAGCGCCCGCCCGGGCGUAUGGCAACGCGGAGCCAAGCUUCGGCGCCUGCGCCGAUGUAGGUGUAGCGACUAGACGGCACCCACCUAAGGCUAACGGUAUGGUGAAGGCAUAGUCAAGGGAGAGGCGAAAGUCACACAAACCGG [C82G A111U A120C A145U C150G C169A U176A],0.0121
5,GUGCCUUGCGCCGGGAAACCACGCAAGGGAUGGUGUCAAAUUCGGCGAAACCUAAGCGCCCGCCCGGGCGUAUGGCAACGCGGAGCCAAGCUUCGGCGCCUGCGCCGAUGUAGGUGUAGCGACUAGACGGCACCCACCUAAGGCUAACGCUAUGGUGAAGGCAUAGUCCAGGGAGUGGCGAAAGUCACACAAACCGG [C82G A111U A120C A145U],0.0517
6,GUGCCUUGCGCCGGGAAACCACGCAAGGGAUGGUGUCAAAUUCGGCGAAACCUAAGCGCCCGCCCGGGCGUAUGGCAACGCGGAGCCAAGCUUCGGCGCCUGCGCCGAUGUAGGUGUAGCGACUAGACGGCACCCACCUAAGGCUAACGAUAUGGUGAAGGCAUAGUCUAGGGAGCGGCGAAAGUCACACAAACCGG [C82G A111U A120C A145U C150A C169U U176C],0.0141
7,GUGCCUUGCGCCGGGAAACCACGCAAGGGAUGGUGUCAAAUUCGGCGAAACCUAAGCGCCCGCCCGGGCGUAUGGCAACGCGGAGCCAAGCUUCGGCGCCUGCGCCGAUGUAGGUGUAGCGACUAGACGGCACCCACCUAAGGCUAACGAUAUGGUGAAGGCAUAGUCUAGGGAGGGGCGAAAGUCACACAAACCGG [C82G A111U A120C A145U C150A C169U U176G],0.00715
8,GUGCCUUGCGCCGGGAAACCACGCAAGGGAUGGUGUCAAAUUCGGCGAAACCUAAGCGCCCGCCCGGGCGUAUGGCAACGCGGAGCCAAGCUUCGGCGCCUGCGCCGAUGUAGGUGUAGCGACUAGACGGCACCCACCUAAGGCUAACGAUAUGGUGAAGGCAUAGUCUAGGGAGAGGCGAAAGUCACACAAACCGG [C82G A111U A120C A145U C150A C169U U176A],0.0146
9,GUGCCUUGCGCCGGGAAACCACGCAAGGGAUGGUGUCAAAUUCGGCGAAACCUAAGCGCCCGCCCGGGCGUAUGGCAACGCGGAGCCAAGCUUCGGCGCCUGCGCCGAUGUAGGUGUAGCGACUAGACGGCACCCACCUAAGGCGAACGCUAUGGUGAAGGCAUAGUCGAGGGAGCGGCGAAAGUCACACAAACCGG [C82G A111U A120C A145G C169G U176C],0.0281
10,GUGCCUUGCGCCGGGAAACCACGCAAGGGAUGGUGUCAAAUUCGGCGAAACCUAAGCGCCCGCCCGGGCGUAUGGCAACGCGGAGCCAAGCUUCGGCGCCUGCGCCGAUGUAGGUGUAGCGACUAGACGGCACCCACCUAAGGCGAACGCUAUGGUGAAGGCAUAGUCGAGGGAGGGGCGAAAGUCACACAAACCGG [C82G A111U A120C A145G C169G U176G],0.00543
11,GUGCCUUGCGCCGGGAAACCACGCAAGGGAUGGUGUCAAAUUCGGCGAAACCUAAGCGCCCGCCCGGGCGUAUGGCAACGCGGAGCCAAGCUUCGGCGCCUGCGCCGAUGUAGGUGUAGCGACUAGACGGCACCCACCUAAGGCGAACGCUAUGGUGAAGGCAUAGUCGAGGGAGAGGCGAAAGUCACACAAACCGG [C82G A111U A120C A145G C169G U176A],0.0187
12,GUGCCUUGCGCCGGGAAACCACGCAAGGGAUGGUGUCAAAUUCGGCGAAACCUAAGCGCCCGCCCGGGCGUAUGGCAACGCGGAGCCAAGCUUCGGCGCCUGCGCCGAUGUAGGUGUAGCGACUAGACGGCACCCACCUAAGGCUAACGAUAUGGUGAAGGCAUAGUCCAGGGAGAGGCGAAAGUCACACAAACCGG [C82G A111U A120C A145U C150A U176A],0.0101
13,GUGCCUUGCGCCGGGAAACCACGCAAGGGAUGGUGUCAAAUUCGGCGAAACCUAAGCGCCCGCCCGGGCGUAUGGCAACGCGGAGCCAAGCUUCGGCGCCUGCGCCGAUGUAGGUGUAGCGACUAGACGGCACCCACCUAAGGCUAACGAUAUGGUGAAGGCAUAGUCCAGGGAGGGGCGAAAGUCACACAAACCGG [C82G A111U A120C A145U C150A U176G],0.00705
14,GUGCCUUGCGCCGGGAAACCACGCAAGGGAUGGUGUCAAAUUCGGCGAAACCUAAGCGCCCGCCCGGGCGUAUGGCAACGCGGAGCCAAGCUUCGGCGCCUGCGCCGAUGUAGGUGUAGCGACUAGACGGCACCCACCUAAGGCUAACGAUAUGGUGAAGGCAUAGUCCAGGGAGCGGCGAAAGUCACACAAACCGG [C82G A111U A120C A145U C150A U176C],0.018
15,GUGCCUUGCGCCGGGAAACCACGCAAGGGAUGGUGUCAAAUUCGGCGAAACCUAAGCGCCCGCCCGGGCGUAUGGCAACGCGGAGCCAAGCUUCGGCGCCUGCGCCGAUGUAGGUGUAGCGACUAGACGGCACCCACCUAAGGCUAACGGUAUGGUGAAGGCAUAGUCAAGGGAGUGGCGAAAGUCACACAAACCGG [C82G A111U A120C A145U C150G C169A],0.00911
